According to patent US20090105562A1, “SYSTEM AND METHODS FOR SCREENING OR ANALYZING TARGETS” (TAIPEI VETERANS GENERAL HOSPITAL, priority 2007, published 2009):

Legend:
PC-12 cells = assay: DA and 5-HT in dialysate of PC-12 cells medium after NGF induction (HPLC-ED); type: cell-based; settings: after induction with NGF of PC-12 cells
Method: (§1) A microdialysis system consists of a basic microdialysis pump (CMA/100, CMA, Stockholm, Sweden), a fraction collector (CMA/140, CMA), and a microdialysis probe cemented to a Petri dish (FIG. 3). The dialysis probe was made of a dialysis membrane 30 mm in length, 150 μm in outer diameter, and a nominal molecular weight cutoff of 13,000. Ringer solution (8.6 g/L NaCl, 0.3 g/L KCl, and 0.33 g/L CaCl2) was perfused through the probe at a flow rate of 2 μl/min. Microdialysate samples were collected every 10 min. Each microdialysate of 10 μl was injected manually into the chromatographic system and was assayed on the same sampling day. The Liquid chromatography and electrochemical detection contains a model HTEC-500 LC-ED system (Eicom, Kyoto, Japan), consisting of a three-electrode cell with Ag/AgCl as the reference electrode, a counter-electrode, and a graphite electrode as the working electrode, were used to measure dopamine (DA) and serotonin (5-HT). The experiment employed a graphite working electrode with a 25-μm gasket with the applied potential set at +450 mV versus Ag/AgCl. The column used for the separation of DA and 5-HT was a PP-ODS column (4.6×30 mm, Eicom) at room temperature (25° C.). […]

neural stem cell = assay: DA and 5-HT in dialysate of neural stem cell medium after NGF induction (microdialysis, HPLC-ED); type: cell-based; settings: after induction with polyornithine/laminin-coating plate and NGF of neural stem cell
Method: as §1

LPS-treated NSCs [1] = assay: ELISA of IL-1β, IL-6 and TNF-α in LPS-treated NSCs; type: cell-based, rat; settings: vs only LPS-treated NSCs; IM 3 μM; p<0.05
Method: (§2) IM was purchased from Sigma Chem. Co., St Louis, Mo., USA. NSCs were seeded on 24-well plates at a density of 2×10^4 cells/well in medium, followed by methyl thiazol tetrazolium assay (MTT assay) (Sigma-Aldrich Co., St Louis, Mo., USA) for cell viability. NSCs were incubated with 0.25 mg/ml MTT for 4 hours at 37° C. and the reaction was terminated by the addition of 100% isopropanol. The amount of MTT fromazon product was determined using a microplate reader and the absorbance was measured at 560 nm (SpectraMax 250, Molecular Devices, Sunnyvale, Calif., USA). NSCs were exposed to 0, 1, 2, 5, 10, 20, 30, 40, 50, 100, 200, and 300 μM of IM for 1, 3, 5, and 7 days, respectively. The activities of caspases 8 and 3 (Medical and Biological Laboratories Co., Ltd., Nagoya, Japan), and the concentration of IL-6, IL-1 and TNF-α (Pharmingen, San Diego, Calif., USA) were determined by ELISA kits and quantified by reading at 490 nm (MRX; Dynatech Laboratories, Chantilly, Va., USA). Each individual sample was analyzed in triplicate.
(§3) Double-stranded, short interfering RNA (siRNA) of BDNF and Bcl-2 were chemically synthesized by Ambion Inc., Austin, Tex., USA). The sense and antisense sequences of BDNF were designed as follows: Sense: […]tt; Antisense: AGCTTAAAAAGAG CTGtt, starting from nucleotide 137 of the Bcl-2 sequence (accession number L14680). The sense and antisense sequences of Bcl-2 were designed as follows: Sense: GCGCUGGAUAUAACUUCUUtt; Antisense: AAGAAGUUAUAUC CAGCGCtt, starting from nucleotide 137 of the Bcl-2 sequence (accession number L14680). In this test, the siRNA control used was siRNA-Cy3 (QIAGEN; sense sequence: UUCUCCGAACGUGU CACGUdTdT-3′-Cy3 and the complement 5′-ACGUGACACGUUCGGAGAAdTdT-3′-Cy3) as an irrelevant control. The transfection of siRNA was performed using Lipofectamine 2000 (Invitrogen, Carlsbad, Calif., USA) according to the manufacturer's instructions. In brief, cells were harvested with 0.25% trypsin, 1 mM ethylenediaminetetraacetic acid (EDTA) in phosphate buffered saline (PBS) without Ca^2+ and Mg^2+, and plated in six-well plates at 10^5 per cm^2. Then 3.5 μl siRNA (100 μM solution) was mixed with 125 μl serum-free culture medium for 5 minutes at room temperature. During this incubation period, 5 μl of Lipofectamine 2000 was diluted in 125 μl serum-free culture medium. These two mixtures were combined, mixed gently, and incubated for 20 minutes at room temperature for complex formation. This 250 μl of siRNA-Lipofectamine mixture was then added into the cells in a final volume of 2.5 ml per well. The transfected cells were cultured and fed daily with fresh medium until they were assayed.

Bcl-2 = Bcl-2 protein expression in NSCs by western blot and immunocytochemistry; type: cell-based, rat; settings: treatment with either agent alone
Method: After the treatment with IM, the cell lysates of the NSCs were collected and the concentration of protein was determined by using the Protein Assay kit (Bio-Rad, Hercules, Calif., USA). Cell extracts with sample buffer were boiled for 5 minutes and then separated by 10% SDS-PAGE gel. After electrophoresis, the gel was transferred onto a PVDF membrane for immunoblotting. The membrane was first blocked by incubation in non-fat milk at room temperature for 2 hours, then incubated with anti-Bcl-2 antibody (Upstate Biotechnology Inc, Waltham, Mass., USA), and anti-β actin (Chemicon International Inc, Temecula, Calif., USA) for 2 hours at room temperature, washed five times with Tris-Buffered Saline Tween-20 (TBST), and then incubated further at room temperature with horseradish peroxidase-conjugated secondary antibody for 2 hours. Then the membrane was washed six times with TBST and specific bands were made visible by chemiluminescence (Santa Cruz Biotechnology, Santa Cruz, Calif., USA).
as §3
An avidin-biotin complex method was used for the immunohistochemical staining in the differentiated NSCs. Following washes with the 3% hydrogen peroxide, sodium azide and antigens were retrieved using a microwave. Each slide was then treated with antibodies for Bcl-2 (Upstate Biotechnology, Waltham, Mass., USA), Nestin (Chemicon, Temecula, Calif., USA), 4′, 6-diamidino-2-phenylindole (DAPI; Chemicon, Temecula, Calif., USA) and MAP2 (Chemicon, Temecula, Calif., USA). Immunoreactive signals were detected with a mixture of biotinylated rabbit anti-mouse IgG and Fluoresave (Calbiochem, La Jolla, Calif., USA) under confocal microscopy (Olympus, FV300). Each individual sample was analyzed in triplicate. Furthermore, apoptotic cells were identified by the TUNEL method (In Situ Cell Death Detection Kit, POD, Roche Boehringer Mannheim Corp., IN, USA) as described in Chiou et al., J. Immunol. 167, 4098-4103, 2001. Briefly, the cells with cover slips were washed with 1× phosphate buffered saline (PBS), fixed with 4% of paraformaldehyde for 10 minutes, permeabilized with 0.1% of triton X-100 for 5 mins, and incubated with the TUNEL reagent provided for 1 hour. Chromogenic development was then applied with 3-amino-9-ethyl-carbazole, and slides were counterstained with H & E stain. […]

LPS-treated NSCs [2] = assay: Cell survival rate of LPS-treated NSCs; type: cell-based, rat; settings: vs only LPS-treated NSCs; LPS 100 ng/ml
Method: as §2
as §3, with “Then 3.5 μl siRNA (100 μM solution) was mixed with 125 μl serum-free culture medium for 5 minutes at room temperature. During this incubation period, 5 μl of Lipofectamine 2000 was diluted in 125 μl serum-free culture medium. These two mixtures were combined, mixed gently, and incubated for 20 minutes at room temperature for complex formation. This 250 μl of siRNA-Lipofectamine mixture was then added into the cells in a final volume of 2.5 ml per well. The transfected cells were cultured and fed daily with fresh medium until they were assayed.” left out

LPS-treated NSCs [3] = assay: LPS-induced apoptotic activity in NSCs, caspase 8 and 3 ELISA; type: cell-based, rat; settings: vs only LPS-treated NSCs; p<0.05
Method: as §2, §3

How did the “5-HT concentration in dialysate” value (PC-12 cells; basal 0.18 ng/ml) turn out when “NGF: NGF used to induce neural stem cells / PC-12 cells” was run?
Its value is 2.94 ng/mL.

And the “DA concentration in dialysate” value (PC-12 cells; basal 6.04 ng/ml)?
The value was 50.06 ng/mL.

What about the “5-HT concentration in dialysate” value (neural stem cell; basal 0.18 ng/ml) of the same molecule?
Its value is 2.84 ng/mL.

What about the “DA concentration in dialysate” value (neural stem cell; basal 6.04 ng/ml) of the same molecule?
The value was 46.9 ng/mL.

B1: BDNF: BDNF recombinant protein (protein, UniProt P23560 19-247, looked up)
Neurotrophic factor BDNF …: APMKEANIRGQGGLAYPGVRTHGTLESVNGPKAGSRGLTSLADTFEHVIEELLDEDQKVRPNEENNKDADLYTSRVMLSSQVPLEPPLLFLLEEYKNYLDAANMSMRVRRHSDPARRGELSVCDSISEWVTAADKKTAVDMSGGTVTVLEKVPVSKGQLKQYFYETKCNPMGYTKEGCRGIDKRHWNSQCRTTQSYVRALTMDSKKRIGWRFIRIDTSCVCTLTIKRGR
B1 was tested. Which “IL-1β production in LPS-treated NSCs” value (LPS-treated NSCs [1]) did it give?
The value was “significantly inhibited”.

And the “IL-6 production in LPS-treated NSCs” value (LPS-treated NSCs [1])?
Its value is “significantly inhibited”.

And the “TNF-α production in LPS-treated NSCs” value (LPS-treated NSCs [1])?
Its value is “significantly inhibited”.

What about the “Bcl-2 expression in NSCs” value (Bcl-2) of the same molecule?
Its value is “activate”.

What about the “cell survival rate in LPS-treated NSCs” value (LPS-treated NSCs [2]) of the same molecule?
Its value is “significantly increases”.

What about the “apoptotic activities in LPS-treated NSCs” value (LPS-treated NSCs [3]) of the same molecule?
The value was “significantly inhibited”.
